# Results: US20210403547A1 (Eli Lilly, published 2021)
# T1: Human Betacellulin (human, UniProt P35070 32-111)
# T1 sequence: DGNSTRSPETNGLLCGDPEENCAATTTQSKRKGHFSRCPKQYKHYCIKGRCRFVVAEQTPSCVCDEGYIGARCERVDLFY
# T2: Human Amphiregulin (human, UniProt P15514 101-187)
# T2 sequence: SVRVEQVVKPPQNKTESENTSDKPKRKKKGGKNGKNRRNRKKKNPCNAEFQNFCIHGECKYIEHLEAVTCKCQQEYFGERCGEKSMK
# B1: Antibody III (antibody, mouse IgG1, kappa, V domains shown)
# VH: QVQLQQSGPELVKPGASVKISCKASGYTFTDAYINWVKQRPGQGLEWIGWIWPGPVITYYNPKFKGKATLTVDKSSSTAYMLLSSLTSEDSAFYFCARREVLSPFAYWGQGTLVTVSA
# VL: DVLMTQTPLSLPVSLGDQASISCRSSQSIVHSTGNTYLEWYLQKPGQSPKLLIYKVSNRFSGVPDRFSGSGSGTDFTLKISRVEAEDLGVYYCFHGTHVPYTFGGGTKLEIKR
# notes: Mouse monoclonal antibody with the same CDRs as Antibody I; also called mouse antibody
# B2: Antibody I (antibody, human IgG4 S228P, kappa, F234A L235A, V domains shown)
# VH: QVQLVQSGAEVKKPGSSVKVSCKASGYTFTDAYINWVRQAPGQGLEWMGWIWPGPVITYYNPKFKGRVTITADKSTSTAYMELSSLRSEDTAVYYCARREVLSPFAYWGQGTTVTVSS
# VL: DIVMTQSPDSLAVSLGERATINCRSSQSIVHSTGNTYLEWYQQKPGQPPKLLIYKVSNRFSGVPDRFSGSGSGTDFTLTISSLQAEDVAVYYCFHGTHVPYTFGGGTKVEIKR
# notes: Humanized IgG4 monoclonal antibody
# Legend:
# [1] = target: Mouse Epigen (mouse (Mus musculus), UniProt Q924X1 53-103); assay: SPR, 25 C
# [2] = target: T3, Mouse TGF-alpha (mouse (Mus musculus), UniProt P48030 39-88); assay: SPR (Biacore), antibody captured on chip, ligand injected, 1:1 Langmuir fit, 25 C
# T3 construct: also called mouse TGFα
# Description: (§1) Biacore T2000 instrument (BIAcore® AB, Upsala, Sweden), reagents and Biacore T2000 Evaluation Software Ver 4.1 are used for the Surface Plasmon Resonance analysis. A CMS chip is prepared using manufacturer's EDC/NHS amine coupling method. The surfaces of all four flow cells are activated by injecting a 1:1 mixture of EDC/NHS for 7 minutes at 10 μL/min. […] Un-reacted sites are blocked with a 7 minute injection of ethanolamine at 10 μL/min. Injections of 3×20 seconds of glycine pH 1.5 at 30 μL/min are used to remove non-covalently associated protein. The running buffer is HBS-EP [10 mM HEPES, 150 mM Sodium Chloride, 3 mM EDTA, 0.005% Polysorbate 20].
# (§2) Duplicate injections of each ligand concentration are injected at 30 μL/min for 300 seconds followed by a dissociation phase. […] Regeneration is performed by injecting 10 mM glycine pH 1.5 for 30 seconds at 30 μL/min over all flowcell.
# (§3) Reference-subtracted data are collected as Fc2-Fc1. The measurements are obtained at 25° C. The on-rate (kₒₙ) and off-rate (koff) for each ligand are evaluated using a “1:1 (Langmuir) Binding” binding model. The affinity (KD) is calculated from the binding kinetics according to the relationship: KD=koff/kₒₙ.
# [3] = target: T4, Mouse Epiregulin (mouse (Mus musculus), UniProt Q61521 56-101); assay: as above
# Description: as §1, §2, §3
# [4] = target: Human TGF-alpha (human, UniProt P01135 40-89); assay: cell-based or functional assay
# [5] = target: T5, Rat TGF-alpha (rat, UniProt P01134 39-88); assay: cell-based or functional assay
# [6] = target: T4, Mouse Epiregulin; assay: cell-based or functional assay
# [7] = target: T6, Met-human Epiregulin (human, UniProt O14944 63-108); assay: cell-based or functional assay
# [8] = target: T3, Mouse TGF-alpha; assay: SPR (Biacore), antibody captured on chip, ligand injected, KD = koff/kon, 25 C
# Description: as §1, §2, §3
# [9] = target: T4, Mouse Epiregulin; assay: as above
# Description: as §1, §2, §3
# [10] = target: Human EGF (human, UniProt P01133 971-1023); assay: cell-based or functional assay
# [11] = target: T1, Human Betacellulin; assay: cell-based or functional assay
# [12] = target: T2, Human Amphiregulin; assay: cell-based or functional assay
# [13] = target: Human HBEGF (human, UniProt Q99075 63-148); assay: cell-based or functional assay
# [14] = target: rat epigen (rat); assay: cell-based or functional assay
# [15] = target: T3, Mouse TGF-alpha; assay: cell-based or functional assay
# [16] = target: rat epiregulin (rat, UniProt Q9Z0L5 56-101, limits assumed); assay: cell-based or functional assay
# [17] = target: T5, Rat TGF-alpha; assay: cell-based or functional assay; remark: listed apart in the source
# [18] = target: T4, Mouse Epiregulin; assay: cell-based or functional assay; remark: listed apart in the source
# [19] = target: T7, Cynomolgus Epiregulin (cynomolgus (Macaca fascicularis), UniProt O14944 63-108 (human entry)); assay: cell-based or functional assay
# [20] = target: T6, Met-human Epiregulin; assay: cell-based or functional assay; remark: listed apart in the source
# [21] = target: cynomolgus monkey epigen (cynomolgus monkey, UniProt G7P5K4 23-110); assay: cell-based or functional assay
# [22] = target: T5, Rat TGF-alpha; assay: SPR (Biacore), antibody captured via anti-Fc on chip, ligand injected, KD = koff/kon, 25 C
# Description: as §1
# (§4) Duplicate injections of each ligand concentration are injected at 30 μL/min for 300 seconds followed by a dissociation phase. […] Regeneration is performed by injecting 10 mM glycine pH 1.5 for 3×20 seconds at 30 μL/min over all flowcell.
# as §3
# [23] = target: T4, Mouse Epiregulin; assay: as above
# Description: as §1, §4, §3
# [24] = target: T7, Cynomolgus Epiregulin; assay: as above
# Description: as §1, §4, §3
# [25] = target: T6, Met-human Epiregulin; assay: as above
# Description: as §1, §4, §3
binder,measurement,setting,value
B1,Kd,[1],365 nM
same,koff,[2],2.02e-05 s⁻¹
same,kon,[2],541000 M⁻¹ s⁻¹
same,koff,[3],0.0141 s⁻¹
same,kon,[3],65500 M⁻¹ s⁻¹
same,"IC50, neutralization of ligand-stimulated MFc7 cell proliferation (BrDU incorporation)",[4],0.52 nM
same,"IC50, neutralization of ligand-stimulated MFc7 cell proliferation (BrDU incorporation), ligand at 0.5 nM",[5],0.13 nM
same,"IC50, neutralization of ligand-stimulated MFc7 cell proliferation (BrDU incorporation), ligand at 0.5 nM",[6],214 nM
same,"IC50, neutralization of ligand-stimulated MFc7 cell proliferation (BrDU incorporation)",[7],1.12 nM
same,Kd,[8],0.038 nM
same,Kd,[9],215 nM
B2,"IC50, neutralization of ligand-stimulated MFc7 cell proliferation (BrDU incorporation), ligand at 0.5 nM",[10],> 2000 nM
same,"IC50, neutralization of ligand-stimulated MFc7 cell proliferation (BrDU incorporation), ligand at 0.5 nM",[5],0.19 nM
same,"IC50, neutralization of ligand-stimulated MFc7 cell proliferation (BrDU incorporation), ligand at 0.5 nM",[11],> 2000 nM
same,"IC50, neutralization of ligand-stimulated MFc7 cell proliferation (BrDU incorporation), ligand at 60 nM",[12],> 2000 nM
same,"IC50, neutralization of ligand-stimulated MFc7 cell proliferation (BrDU incorporation), ligand at 0.5 nM",[6],334 nM
same,"IC50, neutralization of ligand-stimulated MFc7 cell proliferation (BrDU incorporation), ligand at 0.5 nM",[7],3.15 nM
same,"IC50, neutralization of ligand-stimulated MFc7 cell proliferation (BrDU incorporation), ligand at 0.5 nM",[13],> 2000 nM
same,"IC50, neutralization of ligand-stimulated myofibroblast proliferation",[14],< 850 nM
same,"IC50, neutralization of ligand-stimulated myofibroblast proliferation",[15],< 0.5 nM
same,"IC50, neutralization of ligand-stimulated myofibroblast proliferation",[16],< 350 nM
same,"IC50, neutralization of ligand-stimulated myofibroblast proliferation",[17],< 0.5 nM
same,"IC50, neutralization of ligand-stimulated myofibroblast proliferation",[18],< 350 nM
same,"IC50, neutralization of ligand-stimulated myofibroblast proliferation",[19],< 3.5 nM
same,"IC50, neutralization of ligand-stimulated myofibroblast proliferation",[20],< 3.5 nM
same,"IC50, neutralization of ligand-stimulated myofibroblast proliferation",[21],< 850 nM
same,Kd,[22],0.0705 nM
same,Kd,[23],342 nM
same,Kd,[24],1.05 nM
same,Kd,[25],1.29 nM
